The target in test [1] is T1, cynomolgus monkey PD-L1 (full length, on CHO cells) (cynomolgus monkey (Macaca fascicularis), UniProt G7PSE7 19-290).
T1 construct: whole, on cells; also called PDL1 Mf; cynomolgus PD-L1
The experiment in a line: flow cytometry on CHO cells transfected with cynomolgus PD-L1, PE anti-human IgG secondary, MFI (PE). On the procedure:
(§1) Cells (3-5×10⁴ cells/well) were incubated in polystyrene 96-well round-bottom plates (Greiner bio-one, cat. no. 650101) with serial dilutions of antibodies (range 0.0001 to 10 μg/mL in 5-fold dilution steps) in 50 μL PBS/0.1% BSA/0.02% azide (staining buffer) at 4° C. for 30 min.
(§2) After washing twice in staining buffer, cells were incubated in 50 μL secondary antibody at 4° C. for 30 min. As a secondary antibody, R-Phycoerythrin (PE)-conjugated goat-anti-human IgG F(ab′)₂ (Cat. no. 109-116-098, Jackson ImmunoResearch Laboratories, Inc., West Grove, Pa.) diluted 1:500 in staining buffer, was used for all experiments. Next, cells were washed twice in staining buffer, re-suspended in 20 μL staining buffer and analyzed on an iQue screener (Intellicyt Corporation, USA). Binding curves were analyzed using non-linear regression (sigmoidal dose-response with variable slope) using GraphPad Prism V75.04 software (GraphPad Software, San Diego, Calif., USA).
(§3) Binding to CHO cells expressing cynomolgus PD-L1 was determined by flow cytometry using a method as described above.

Test [2] concerns the target T2, human PD-L1 (full length, on cells) (human, UniProt Q9NZQ7 19-290).
T2 construct: The entry holds the signal peptide; also called CD274; B7H1
The experiment in a line: flow cytometry on MDA-MB-231 cells, PE anti-human IgG secondary, MFI (PE). On the procedure: as §1, §2
For orientation: In flow cytometry, cells or beads pass a laser one at a time.

In test [3] the target is T2, human PD-L1 (full length, on cells). The experiment in a line: cell-based or functional assay.
For test [4], the target named is T3, PDLoneECDHisCtag (human, UniProt Q9NZQ7 19-238).
T3 construct: Expressed in HEK-293F cells; theoretical molecular weight 29 kDa; also called recombinant human PD-L1 ECD; human PD-L1 (BLI); not shown: C-terminal His-tag; C-tag
T3 sequence (Q9NZQ7 19-238, form in doubt): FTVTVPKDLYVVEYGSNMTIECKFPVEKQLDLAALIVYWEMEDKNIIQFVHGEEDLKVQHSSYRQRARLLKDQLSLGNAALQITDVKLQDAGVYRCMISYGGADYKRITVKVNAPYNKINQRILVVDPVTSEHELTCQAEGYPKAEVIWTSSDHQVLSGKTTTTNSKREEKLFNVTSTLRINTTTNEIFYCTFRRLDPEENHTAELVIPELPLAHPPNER
The experiment in a line: BLI cross-block, second antibody on PDLoneECDHisCtag held by immobilised 476-N101Q-LC33S; plain = non-blocking. The procedure:
(§4) Antibody cross-block testing was performed using biolayer interferometry (BLI) on an Octet HTX instrument (ForteBio). Antibodies (20 μg/ml in 10 mM sodium acetate buffer pH 6.0 (ForteBio)) were immobilized on Amine-Reactive 2nd Generation (AR2G) biosensors (ForteBio) according to the instructions of the manufacturer. After a baseline (50 s) in Sample Diluent (ForteBio), biosensors containing immobilized antibodies were loaded for 500 s with PDLoneECDHisCtag (100 nM or 2.7 μg/ml), after which the association response of a second antibody (10 μg/ml) was followed for 500 s. Biosensors were regenerated by using 3 times 5 s alternating exposures to 10 mM glycine pH 2.5 and Sample Diluent. The experiment was repeated with a new set of second antibodies starting from the baseline step. Each biosensor was used 6 times. The experiment was performed at 30° C. using a shaker speed of 1000 rpm. Data was analyzed using Data Analysis Software v9.0.0.12 (ForteBio). The Y-axis was aligned to the association step and Savitzky-Golay filtering was applied. The average buffer response was subtracted from the association response of the second antibody in order to correct for the dissociation of PDLoneECDHisCtag from the immobilized antibody. The corrected association responses were plotted in a matrix format.

The target of test [5] is T2, human PD-L1 (full length, on cells). The test is described as follows: flow cytometry on MDA-MB-231 cells, PE anti-human IgG secondary, MFI (PE). On the procedure:
as §1, §2
The source holds these as a separate data set.

The target is the same in test [6]. The test is described as follows: cell-based or functional assay. The source holds these as a separate data set.
Test [7] has the same target. The experiment in a line: cell-based or functional assay. This is another data set of the same source.
Test [8] has as its target T3, PDLoneECDHisCtag. The test is described as follows: BLI cross-block, second antibody on PDLoneECDHisCtag held by immobilised 421-LC91S; plain = non-blocking. The procedure: as §4
For test [9], the target named is T3, PDLoneECDHisCtag. The test is described as follows: BLI cross-block, second antibody on PDLoneECDHisCtag held by immobilised 476-N101Q-LC33S; bold = blocking. On the procedure: as §4
For test [10], the target named is T3, PDLoneECDHisCtag. The experiment in a line: BLI cross-block, second antibody on PDLoneECDHisCtag held by immobilised 632; bold = blocking. The procedure:
as §4

Test [11] addresses T3, PDLoneECDHisCtag. The experiment in a line: BLI cross-block, second antibody on PDLoneECDHisCtag held by immobilised 547; plain = non-blocking. On the procedure: as §4
For test [12], the target named is T1, cynomolgus monkey PD-L1 (full length, …). The experiment in a line: flow cytometry on CHO cells transfected with cynomolgus PD-L1, PE anti-human IgG secondary, MFI (PE). On the procedure: as §1, §2, §3
This is another data set of the same source.

The target of test [13] is T3, PDLoneECDHisCtag. The experiment in a line: BLI (Octet HTX); antibody on anti-human IgG Fc capture sensor, PDLoneECDHisCtag as analyte; 1:1 global fit, 200 s dissociation time. On the procedure:
In a first set of experiments, affinities for recombinant-expressed human PD-L1 protein were determined using Bio-layer interferometry (BLI) on an Octet HTX instrument (ForteBio). Anti-Human IgG Fc Capture (AHC) biosensors (ForteBio) were loaded for 900 s with antibodies (1 μg/ml). […] The experiment was carried out while shaking at 1000 rpm at 30° C. Data was analyzed with Data Analysis Software v9.0.0.12 (ForteBio) using the 1:1 model and a global full fit with 1000 s association time and 200 or 1000 s dissociation time. Data traces were corrected by subtraction of a buffer reference, the Y-axis was aligned to the last 10 s of the baseline, and interstep correction as well as Savitzky-Golay filtering was applied. Data traces with a response <0.05 nm were excluded from analysis. As default, the fit using 1000 s dissociation time was used.
A general note: In BLI a coated tip is dipped into the sample, and binding shifts an interference pattern.

Read-outs that look alike come from different tables or passages of the source.

T2 sequence (Q9NZQ7 19-290 limits assumed): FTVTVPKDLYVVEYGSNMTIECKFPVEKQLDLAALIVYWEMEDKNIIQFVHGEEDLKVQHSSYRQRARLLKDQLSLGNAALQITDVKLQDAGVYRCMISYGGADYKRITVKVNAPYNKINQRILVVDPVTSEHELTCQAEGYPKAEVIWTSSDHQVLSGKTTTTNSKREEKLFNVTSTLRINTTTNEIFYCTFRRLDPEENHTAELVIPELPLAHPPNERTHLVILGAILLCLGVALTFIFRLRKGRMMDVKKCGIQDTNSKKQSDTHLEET
T1 sequence (G7PSE7 entry or part of it): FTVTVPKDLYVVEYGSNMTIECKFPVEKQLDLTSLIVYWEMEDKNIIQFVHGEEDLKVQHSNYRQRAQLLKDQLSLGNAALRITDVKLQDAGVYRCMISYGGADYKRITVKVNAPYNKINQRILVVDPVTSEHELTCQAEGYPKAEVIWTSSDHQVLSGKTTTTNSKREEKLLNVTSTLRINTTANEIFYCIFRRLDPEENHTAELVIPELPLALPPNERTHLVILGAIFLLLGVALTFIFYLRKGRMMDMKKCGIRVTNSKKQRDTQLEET

B1: IgG1-547-FEAR (antibody, V domains shown)
VH: EVQLLEPGGGLVQPGGSLRLSCEASGSTFSTYAMSWVRQAPGKGLEWVSGFSGSGGFTFYADSVRGRFTISRDSSKNTLFLQMSSLRAEDTAVYYCAIPARGYNYGSFQHWGQGTLVTVSS
VL: SYVLTQPPSVSVAPGQTARITCGGNNIGSKSVHWYQQKPGQAPVLVVYDDNDRPSGLPERFSGSNSGNTATLTISRVEAGDEADYYCQVWDSSSDHVVFGGGTKLTVLG
By EC50 (read off the curve) is commonly meant the concentration that produces a half-maximal response. Turning to B1, the results for the “EC50 (read off the curve)” value in test [1], in test [2] and in [3] were about 0.05 µg/mL, about 0.03 µg/mL and about 0.02 µg/mL, respectively. Besides, the “association response of the second antibody” value in the test with PDLoneECDHisCtag [4] came to 0.7 nm.

B2: IgG1-338-FEAR (antibody, V domains shown)
VH: EVQVVESGGGLVQPGGSLRLSCAASGFTFSRFWMSWVRQAPGKGLEWVANIKQDGGEKYYVDSVKGRFTISRDNAKNSLYLQMNSLRGEDTAVYYCARDDNWNGHFDYWGQGTLVTVSS
VL: DIQMTQSPSTLSASVGDRVTITCRASQSISSWLAWYQQKPGKAPNLLIYKASSLESGVPSRFSGSGSGTEFTLTISSLQPDDFATYYCQQYYGSYITFGQGTRLEIKR
B2: the “EC50 (read off the curve)” value in test [5] is about 0.02 µg/mL; in test [6], about 0.03 µg/mL.

B3: IgG1-511-LC33S-FEAR (antibody, V domains shown)
VH: QVQLVQSGSELKKPGASVMVSCKASGYTFTSYVMNWVRQAPGQGLEWMGWINSYTGNPTSAQGFTGRFVFSFDTSVNTAYLQISSLKAEDTAVYYCARGYCTSTSCYLDYWGQGTLVTVSS
VL: SYELTQPPSVSVSPGHTARITCSGDALPKKYASWFQQKSGQAPVLVIYEDSKRPSGIPERFSGSTSGTMATLTISGAQVEDETDYYCYSADTSGTHRVFGGGTKLTVLG
For orientation: Kd means the equilibrium constant for the complex coming apart. By koff is commonly meant the first-order rate constant of dissociation. As usually defined, the kon is a measure of how fast the partners come together. Turning to B3, the “EC50 (read off the curve)” value in test [7] is about 0.05 µg/mL; in test [12], about 0.08 µg/mL. Also, the “association response of the second antibody” value with PDLoneECDHisCtag [8] was 0.3 nm; with PDLoneECDHisCtag [9] it was 0 nm; with PDLoneECDHisCtag [10] it was 0 nm; in the test with PDLoneECDHisCtag [11], 0.7 nm. The Kd with PDLoneECDHisCtag [13] is 3.8 nM. In addition, the off-rate constant (koff) with PDLoneECDHisCtag [13] worked out at 0.0045 s⁻¹. This molecule came in with a kon with PDLoneECDHisCtag [13] of 1.2e+06 M⁻¹ s⁻¹.

Source of the values: patent publication US20200239579A1 (Genmab, published 2020).
